Laboratory results taken from the nanobody polyreactivity screen of Harvey et al. (2022).

Experiment: yeast display, Sf9 membrane polyspecificity reagent, FACS + sequencing; frameworks hold sequencing errors
Outline: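 Nanobodies from a synthetic yeast display library (Saccharomyces cerevisiae BJ5465), induced 36–48 hours with galactose, were stained 1 hour at 4 °C with 10% biotinylated, detergent-solubilized Sf9 membrane reagent, enriched on streptavidin microbeads, then FACS-sorted. Anti-HA (expression) and streptavidin (reagent binding) fluorescence set low and high (top ~1%) gates. Polyreactivity labels come from the gate of origin. Genes were colony-PCR amplified, MiSeq 2 × 250 sequenced and filtered by CDR length.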

Row | Sequence | polyreactivity (PSR sort gate)
1 | QVQLVESGGGLVQAGGSLRLSCAASGRTFWKYVMGWYRQAPGKERELVAVISRPAGSTYYADSVKGRFTISRDNAKNTVYLQMNSLKPEDTAVYYCAKRPKNKPVLGDYDHWGQGTQVTVSS | low polyreactivity
2 | QVQLVESGGGLVQAGGSLRLSCAASGRTFWLYAMGWYRQAPGKERELVARITRRDGSTNYADSVKGRFTISRDNAKNTVYLQMNSLKPEDTAVYYCAAGRFRYPPGAYDYWGQGIQVTVSS | high polyreactivity
3 | QVQLVESGGGLVQAGGSLRLSCAASGRTFWMNAMGWYRQATGKERELVATISSSSGSTTYADSVKGRFTISRDNAKNTVYLQMNSLKPEDTAVYYCNVDDPFYSGVVEFDYWGQGTQVTVSS | low polyreactivity
4 | QVQLVESGGGLVQAGGSLRLSCAASGRTFWNYAMGWYRQAPGKERELVAVIRFSDGSTYYADSVKGRFTISRDNAKNTVYLQMNSLKPEDTAVYYCADIGPRRWGSGFDYWGQGTQVTVSS | low polyreactivity
5 | QVQLVESGGGLVQAGGSLRLSCAASGRTFWRNDMGWYRQAPGKERELVARISWSGGSTYYADSVKGRFTISRDNAKNTVYLQMNSLKPEDTAVYYCAKYYPGRSAFSDGNYWGQGTQVTVSS | low polyreactivity
6 | QVQLVESGGGLVQAGGSLRLSCAASGRTFWRYAMGWYRQAPGKERELVARISSGGSTYYADSVKGRFTISRDNAKNTVYLQMNSLKPEDTAVYYCAVLSRHRRVPWYRYNYWGQGTQVTVSS | low polyreactivity
7 | QVQLVESGGGLVQAGGSLRLSCAASGRTFWTNAMGWYRQAPGKERELVAAISYRAGSTYYADSVKGRFTISRDNAKNTVYLQMNSLKPEDTAVYYCATRAVYYYAGFDYWGQGTQVTVSS | high polyreactivity
8 | QVQLVESGGGLVQAGGSLRLSCAASGRTFWVYAMGWYRQAPGKERELVAAIRRGGITNYADSVKGRFTISRDNAKNTVYLQMNSLKPEDTAVYYCAALGLWFLQFDYWGQGTQVTVSS | low polyreactivity
9 | QVQLVESGGGLVQAGGSLRLSCAASGRTFWWNAMGWYRQAPGKERELVASISSGGSTNYADSVKGRFTISRDNAKKTVYLQMNSLKPEDTAVYYCARGYRWRGTVSRWSRYYQAHDYWGQGTQVTVSS | low polyreactivity
10 | QVQLVESGGGLVQAGGSLRLSCAASGRTFWYNALGWYRQAPGKERELVAAISWSGGTTYYADSVKGRFTISRDNAKNTVYLQMNSLKPEDTAVYYCNAKYRGLAKYDYWGQGTQVTVSS | high polyreactivity
11 | QVQLVESGGGLVQAGGSLRLSCAASGRTFWYNAMGWYRQAPGKERELVAAISSTGGRTYYADSVKGRFTISRDNAKNTVYLQMNSLKPEDTAVYYCAARQLSSHYDYWGQGTQVTVSS | low polyreactivity
12 | QVQLVESGGGLVQAGGSLRLSCAASGRTFWYNTMGWYRQAPGKERELVAAISTGGSTNYADSVKGRFTISRDNAKNTVYLQMNSLIPEDTAVYYCAALIYYWSGRPRFDQARDYDYWGQGTQVTVSS | low polyreactivity
13 | QVQLVESGGGLVQAGGSLRLSCAASGRTFWYYAMGWYRPAPGKERELVASISLSGSRTNYADSVKGRFTIARDNAKNTVYLQINRLKPEDTAVYYCAADNFRQFGEYDYLGQGTQVTVSS | low polyreactivity
14 | QVQLVESGGGLVQAGGSLRLSCAASGRTFWYYAMGWYRQAPGKEREFVAAISWSGGSTYYADSVKGRFTISRDNAKNTVYFQMNSLKPEDTAVYYCNAGNYRDKSYYWGQGTQVTVSS | low polyreactivity
15 | QVQLVESGGGLVQAGGSLRLSCAASGRTFWYYAMGWYRQAPGKERELVAAISRNGGSTYYEDSVKGRFTISRDNAKNTVYLQMNSLKPEDTAVYYCAADGWYTRKYDYWGQGTQVTVSS | high polyreactivity
16 | QVQLVESGGGLVQAGGSLRLSCAASGRTFWYYAMGWYRQAPGKERELVAAISTTGSSTYYADSVKGRFTISRDNAKNTVYLQMNSLKPEDTAVYYCAADSGAQYKYLWGYDYWGQGTQVTVSS | low polyreactivity
17 | QVQLVESGGGLVQAGGSLRLSCAASGRTFWYYAMGWYRQAPGKERELVAAITYRGTRTYADSVKGRFTISRDNAKNTVYLQMNSQKPEDTPVYYCAKDVGYRYSRTMDYWGQGTQVTVSS | high polyreactivity
18 | QVQLVESGGGLVQAGGSLRLSCAASGRTFWYYAMGWYRQAPGKERELVAGITYGDGSTYYADSVKGRFTISRDNAKNTEYLQMNSLKPEDTAVYYCAVDLRSYWFRYGFDYWGQGTQVTVSS | low polyreactivity
19 | QVQLVESGGGLVQAGGSLRLSCAASGRTFWYYDMGWYRQAPGKERELVATINNVGSTHYADSVKGRFTISRDNAKNTVYLQMNSLKPEDTAVYYCARASYGKMDYWGQGTQVTVSS | high polyreactivity
20 | QVQLVESGGGLVQAGGSLRLSCAASGRTFWYYTMGWYIQAPGKERELVASITYRGGSTYYADSVKGRFTISRDNAKNTVYLQMNSLKPEDTAVYYCNARYKRYSYDYWGQGTQVTVSS | high polyreactivity
21 | QVQLVESGGGLVQAGGSLRLSCAASGRTFWYYTMGWYRQAPGKERELVAAISSGGRTNYADSVKGRFTISRDNAKNTVYLQMNSLKPEDTAVYYCATSRYYKYVERDYWGQGTQVTVSS | high polyreactivity
22 | QVQLVESGGGLVQAGGSLRLSCAASGRTFWYYTMGWYRQAPGKERELVASITYRGGSTYYADSVKGRFTISRDNAKNTVYLQMNSLKPEDTAVYFCNARYKRYSYDYWGHGTQVTVSS | high polyreactivity

Row | Sequence | polyreactivity (PSR sort gate)
23 | QVQLVESGGGLVQAGGSLRLSCAASGRTFYANAMGWYRQAPGKERELVAAISTGGDGTYYADSVKGRFTISRDNAKKTVYLQMNSLKPEDTAVYYCAVRHRASGILYDYWGQGTQVTVSS | low polyreactivity
24 | QVQLVESGGGLVQAGGSLRLSCAASGRTFYANAMGWYRQAPGKERELVAAISWGGGSTYYADSVKGRFTISRDNAKNTVYLQMNSLKPEDTAVYYCNADLGRATFYQRVFIERGGYWGQGTQVTVSS | low polyreactivity
25 | QVQLVESGGGLVQAGGSLRLSCAASGRTFYANAMGWYRQAPGKERELVAAITYRGGSTNYADSVKGRFTISRDNAKNTVYLQMNSLKPEDTAVYYCAKVYNPNYLWYLTYGYDYWGQGTQVTVSS | low polyreactivity
26 | QVQLVESGGGLVQAGGSLRLSCAASGRTFYANVMGWYRQAPGKERELVAAITSGGSSYYADSVKGRFTISRDTAKNTVYLQMNSLKPDDTAVYYCAAGSNLNGVWFDYWGQGTQVTVSS | low polyreactivity
27 | QVQLVESGGGLVQAGGSLRLSCAASGRTFYDYAMGWYRQAPGKERELVAAITSGGSTNYADSVKGRFTISRDNAKNTVYLQMNSLKPEDTAGYYCAADDFYVWGFDMNYWGQGTQVTVSS | high polyreactivity
28 | QVQLVESGGGLVQAGGSLRLSCAASGRTFYDYDMGWYRKAPGKERELVAAISGGDSTYYADSVKGRFTISRDNAKNTVFLQMNSLKPEDTAVYYCAVTPRGLPYGAYLLYYWGQGTQVTVSS | low polyreactivity
29 | QVQLVESGGGLVQAGGSLRLSCAASGRTFYEYAKGWYRQAPGKERELVAGITSGGSTNYADSVKGRFTISRDNEKNTVYLQMNSLKPEDTAVYYCAASYWGYEYDYWGQGTQVTVSS | low polyreactivity
30 | QVQLVESGGGLVQAGGSLRLSCAASGRTFYEYAMGCYIPAPGKERELVAAITSGGTTYYADSVKGRFTISRDTAKNTVYLQMNSVKPEDTAVYYCAADRYYYYWGQGTQVTVSS | high polyreactivity
31 | QVQLVESGGGLVQAGGSLRLSCAASGRTFYFNAMGWYRQAPGKERELVAAISGGGRTYYADSVKGRFTISRDNAKNTVYLQMNSLKPEDTAVYYCNVRRWYTYPLEKSNYWGQGTQVTVSS | high polyreactivity
32 | QVQLVESGGGLVQAGGSLRLSCAASGRTFYFYAMGWYRQAPGKERELVAAITSRVGRTYYADSVKGRFTISRDNAKNTVYLQMNSLKPEDTAVYYCAAEGVYRMGYWGQGTQVTVSS | high polyreactivity
33 | QVQLVESGGGLVQAGGSLRLSCAASGRTFYFYAMGWYRQAPGKERELVASITSSGGNTYYADSVKGRFTISRDNAKNTVYLQMNSLKPEDTAVYYCAARWFPWLQWKRYDYWGQGTQVTVSS | low polyreactivity
34 | QVQLVESGGGLVQAGGSLRLSCAASGRTFYFYVMGWYRQAPGKERELVARISWSGGSTYYADSVKGRFTISRDNAKNTVYLQMNSLKPEDTAVYYCARQYKYPSSGEYDSWGQGTQVTVSS | low polyreactivity
35 | QVQLVESGGGLVQAGGSLRLSCAASGRTFYGNAMGWYRQAPGKERELVAAITFRTSSTYYADSVKGRFTISRDYAKNTVYLQMNSLKPDDTAVFYCAALWIYSGWRYDYWGQGTQVTVSS | high polyreactivity
36 | QVQLVESGGGLVQAGGSLRLSCAASGRTFYGNAMGWYRQAPGKERELVAGITRGGSTYYADSVKGRFTISRDNAKITVYLQMNSLKPEDTAVYYCAARAYYARFLMGYWGQVTQVTVSS | high polyreactivity
37 | QVQLVESGGGLVQAGGSLRLSCAASGRTFYGYALGWYRQAPGKERELVAAISDDASTYYADSVKGRFTISRDNAKNTVYLQMNSLKPEDTAVYYCAAEPEWPYGRFDYWGQGTQVTVSS | high polyreactivity
38 | QVQLVESGGGLVQAGGSLRLSCAASGRTFYGYAMGWSRQAPGKERELVAAISWTGGRTYYADSVKGRFTISRDNAKNTVFLQMNSLKPEDTAVYYCNARRRGDSGDGYIYGYWGQGTQVTVSS | high polyreactivity
39 | QVQLVESGGGLVQAGGSLRLSCAASGRTFYGYAMGWYRQAPGKERELVAAISRRGGSTNYADSVKGRFTISRDNAKNSVYLQMNSLKPEDSAVYYCNANYYRTHYDYWGQGTQVTVSS | high polyreactivity
40 | QVQLVESGGGLVQAGGSLRLSCAASGRTFYGYAMGWYRQAPGKERELVAAITRSGGSTYYADSVKGRFTISRDNAKNTVYLQMNSLKPEDTAVYYCAAGGQARHDNWGQGTQVTVSS | low polyreactivity
41 | QVQLVESGGGLVQAGGSLRLSCAASGRTFYGYAMGWYRQAPGKERELVASIRQSAGRTYYADSVKGRFTISRDNAKNTVYLQMNSLKPEDTAVYYCAASIFLRSFYQQGNYWGQGTQVTVSS | high polyreactivity
42 | QVQLVESGGGLVQAGGSLRLSCAASGRTFYGYTMGWYRQAPGKERELVAAIRTSGGSTYADSVKGRFTISRDNAKNTVYLQMNSLKPEDTAVYYCAAPRVVYYGTAPAYRYDYWGQGTQVTVSS | high polyreactivity
43 | QVQLVESGGGLVQAGGSLRLSCAASGRTFYHYAMGWYRQAPGKERELVATITSSGGNTYYADSVKGRFTISRDNSKNTVYLQMNSLKPEDTEVYYCAADWFVYQYSFGSSEYYYWGQGTQVTVSS | low polyreactivity
